{
  "source": "patent US20120252698",
  "tested_on": "T1, PhosFluor (the fluorescent protein having the amino acid sequence set forth in SEQ ID NO: 10)",
  "T1 sequence": "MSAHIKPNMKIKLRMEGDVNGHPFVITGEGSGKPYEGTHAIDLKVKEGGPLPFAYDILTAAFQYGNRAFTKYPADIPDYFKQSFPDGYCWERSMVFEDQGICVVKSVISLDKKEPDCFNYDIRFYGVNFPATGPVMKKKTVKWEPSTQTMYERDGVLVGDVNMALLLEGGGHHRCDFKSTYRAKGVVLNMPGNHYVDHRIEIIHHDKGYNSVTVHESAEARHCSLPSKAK",
  "data": [
    {"substance": "Akt1", "values": [
      {"measurement": "Western blot analyses of phosphorylation", "result": "serine and threonine sites on PhosFluor are phosphorylated by PKA, PKC, mitogen-activated protein kinase (MAPK), cell division control protein 2 (cdc2), and Akt1"},
      {"measurement": "emission spectrum of PhosFluor", "result": "A marked shift in the emission spectrum of PhosFluor was observed when this molecule was incubated with PKA, PKC or Akt1"},
      {"measurement": "excitation spectrum of PhosFluor", "result": "the excitation spectrum of PhosFluor was dramatically altered upon phosphorylation by different protein kinases, including Akt1"}
    ]},
    {"substance": "PKA", "values": [
      {"measurement": "Western blot analyses of phosphorylation", "result": "serine and threonine sites on PhosFluor are phosphorylated by PKA, PKC, mitogen-activated protein kinase (MAPK), cell division control protein 2 (cdc2), and Akt1"},
      {"measurement": "emission spectrum of PhosFluor", "result": "A marked shift in the emission spectrum of PhosFluor was observed when this molecule was incubated with PKA, PKC or Akt1"},
      {"measurement": "upward shift of apparent molecular weight on SDS-PAGE", "result": "To a lesser extent, higher molecular weight species were also observed upon phosphorylation by PKA"}
    ]},
    {"substance": "Src", "values": [
      {"measurement": "SDS-PAGE and immunoblot of PhosFluor incubated with kinase (total protein, phospho-tyrosine, mobility shift)", "result": "PhosFluor is an avid substrate for PKC and Src"}
    ]},
    {"substance": "alkaline phosphatase", "values": [
      {"measurement": "fluorescence intensity of PhosFluor over time", "result": "This treatment virtually abolished the increase in fluorescence intensity of PhosFluor over time"}
    ]},
    {"substance": "cell division control protein 2 (cdc2)", "values": [
      {"measurement": "Western blot analyses of phosphorylation", "result": "serine and threonine sites on PhosFluor are phosphorylated by PKA, PKC, mitogen-activated protein kinase (MAPK), cell division control protein 2 (cdc2), and Akt1"},
      {"measurement": "fluorescence intensity of PhosFluor incubated with kinase", "result": "The fluorescence intensity of PhosFluor also increased above background levels when the protein was incubated with cdc2 and MAPK (data not shown)"}
    ]},
    {"substance": "mitogen-activated protein kinase (MAPK)", "values": [
      {"measurement": "Western blot analyses of phosphorylation", "result": "serine and threonine sites on PhosFluor are phosphorylated by PKA, PKC, mitogen-activated protein kinase (MAPK), cell division control protein 2 (cdc2), and Akt1"},
      {"measurement": "fluorescence intensity of PhosFluor incubated with kinase", "result": "The fluorescence intensity of PhosFluor also increased above background levels when the protein was incubated with cdc2 and MAPK (data not shown)"}
    ]},
    {"substance": "protein kinase C (PKC)", "values": [
      {"measurement": "SDS-PAGE and immunoblot of PhosFluor incubated with kinase (total protein, phospho-tyrosine, mobility shift)", "result": "PhosFluor is an avid substrate for PKC and Src"},
      {"measurement": "Western blot analyses of phosphorylation", "result": "serine and threonine sites on PhosFluor are phosphorylated by PKA, PKC, mitogen-activated protein kinase (MAPK), cell division control protein 2 (cdc2), and Akt1"},
      {"measurement": "emission spectrum of PhosFluor", "result": "A marked shift in the emission spectrum of PhosFluor was observed when this molecule was incubated with PKA, PKC or Akt1"},
      {"measurement": "upward shift of apparent molecular weight on SDS-PAGE", "result": "when phosphorylated by PKC, multiple higher molecular weight species of PhosFluor were resolved by SDS-PAGE"}
    ]}
  ]
}
